Source: PMC4783044, “Stoichiometry and Change of the mRNA Closed-Loop Factors as Translating Ribosomes Transit from Initiation to Elongation” (PLoS ONE, 2016)
Where two headings read alike, the source gives them in different places.

T1: Flag-PAB1 (yeast, UniProt P04147 1-577)
T1 sequence (looked up): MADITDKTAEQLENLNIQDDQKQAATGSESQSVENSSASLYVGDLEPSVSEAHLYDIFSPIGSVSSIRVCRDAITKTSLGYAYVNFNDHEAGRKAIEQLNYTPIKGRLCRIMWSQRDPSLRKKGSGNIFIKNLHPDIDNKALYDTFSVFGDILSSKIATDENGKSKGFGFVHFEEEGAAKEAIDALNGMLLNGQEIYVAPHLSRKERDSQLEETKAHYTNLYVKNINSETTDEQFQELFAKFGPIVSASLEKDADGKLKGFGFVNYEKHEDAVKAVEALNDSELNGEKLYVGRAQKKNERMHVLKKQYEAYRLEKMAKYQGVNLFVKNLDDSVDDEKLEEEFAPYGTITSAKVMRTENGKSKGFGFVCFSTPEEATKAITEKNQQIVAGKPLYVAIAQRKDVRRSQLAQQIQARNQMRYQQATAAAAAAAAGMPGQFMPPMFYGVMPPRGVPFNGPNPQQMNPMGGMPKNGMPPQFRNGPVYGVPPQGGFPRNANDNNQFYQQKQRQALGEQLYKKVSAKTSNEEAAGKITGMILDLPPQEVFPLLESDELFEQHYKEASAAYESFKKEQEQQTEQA

T2: eIF4E-Flag (yeast, UniProt P07260 1-213)
T2 sequence (looked up): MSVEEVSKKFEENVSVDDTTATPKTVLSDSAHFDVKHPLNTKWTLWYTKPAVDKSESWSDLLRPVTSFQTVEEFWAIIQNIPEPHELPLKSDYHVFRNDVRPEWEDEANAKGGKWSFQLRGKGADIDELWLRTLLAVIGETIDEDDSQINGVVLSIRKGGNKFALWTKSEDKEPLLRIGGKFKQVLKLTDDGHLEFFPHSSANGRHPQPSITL

B1: eIF4G2-GFP (natural protein, yeast, UniProt P39936 1-914, looked up)
chain: MTDQRGPPPPHPQQANGYKKFPPHDNQYSGANNSQPNNHYNENLYSAREPHNNKQYQSKNGKYGTNKYNNRNNSQGNAQYYNNRFNNGYRLNNNDYNPAMLPGMQWPANYYAPQMYYIPQQMVPVASPPYTHQPLNTNPEPPSTPKTTKIEITTKTGERLNLKKFHEEKKASKGEEKNDGVEQKSKSGTPFEKEATPVLPANEAVKDTLTETSNEKSTSEAENTKRLFLEQVRLRKAAMERKKNGLISETEKKQETSNHDNTDTTKPNSVIESEPIKEAPKPTGEANEVVIDGKSGASVKTPQHVTGSVTKSVTFNEPENESSSQDVDELVKDDDTTEISDTTGGKTVNKSDDETINSVITTEENTVKETEPSTSDIEMPTVSQLLETLGKAQPISDIYEFAYPENVERPDIKYKKPSVKYTYGPTFLLQFKDKLKFRPDPAWVEAVSSKIVIPPHIARNKPKDSGRFGGDFRSPSMRGMDHTSSSRVSSKRRSKRMGDDRRSNRGYTSRKDREKAAEKAEEQAPKEEIAPLVPSANRWIPKSRVKKTEKKLAPDGKTELFDKEEVERKMKSLLNKLTLEMFDSISSEILDIANQSKWEDDGETLKIVIEQIFHKACDEPHWSSMYAQLCGKVVKDLDPNIKDKENEGKNGPKLVLHYLVARCHEEFEKGWADKLPAGEDGNPLEPEMMSDEYYIAAAAKRRGLGLVRFIGYLYCLNLLTGKMMFECFRRLMKDLNNDPSEETLESVIELLNTVGEQFEHDKFVTPQATLEGSVLLDNLFMLLQHIIDGGTISNRIKFKLIDVKELREIKHWNSAKKDAGPKTIQQIHQEEEQLRQKKNSQRSNSRFNNHNQSNSNRYSSNRRNMQNTQRDSFASTKTGSFRNNQRNARKVEEVSQAPRANMFDALMNNDGDSD
notes: eIF4G2 of yeast, GFP fusion; The printed name puts GFP after the protein; also called TIF4632-GFP; source: yeast strain RP2384 (TIF4632-GFP::G418), in crude extract

What was measured:
[1] = molecular target: T1, Flag-PAB1; assay: co-IP + AUC; as a1, but material migrating from 90S to 200S (polysomal translating complexes); cells on glucose (elongation), or glucose depleted 10 min and glucose added back for 1 min (initiation)
[2] = molecular target: T2, eIF4E-Flag; assay: as above
[3] = molecular target: T1, Flag-PAB1; assay: co-IP + AUC; one-step anti-Flag bead purification from yeast crude extract (Tris pH 7.5, 0.15 M KCl, 2 mM MgCl2, 10% glycerol, 4°C), Flag peptide elution, then AU-FDS of the GFP fusion with AU-A230 or AU-A260 (20°C, 15,000 rpm); material migrating at 77S (monosomal translating complex); cycloheximide added to cells; cells on glucose (elongation), or glucose depleted 10 min and glucose added back for 1 min or 0 min (initiation)
[4] = molecular target: T2, eIF4E-Flag; assay: as above
[5] = molecular target: Flag-SBP1 (yeast) (UniProt P10080); assay: as above
[6] = molecular target: T1, Flag-PAB1; assay: co-IP + AUC; one-step anti-Flag bead purification from yeast crude extract (Tris pH 7.5, 0.15 M KCl, 2 mM MgCl2, 10% glycerol, 4°C), Flag peptide elution, then AU-FDS of the GFP fusion with AU-A230 or AU-A260 (20°C, 15,000 rpm); material migrating at 77S (monosomal translating complex); cycloheximide added to cells; cells on glucose (elongation), or glucose depleted 10 min and glucose added back for 1 min or 0 min …; details: partners not purified
[7] = molecular target: T2, eIF4E-Flag; assay: as above; details: partners not purified

Sequence of Flag-SBP1 (yeast) (P10080 whole entry, the tested form may be a part): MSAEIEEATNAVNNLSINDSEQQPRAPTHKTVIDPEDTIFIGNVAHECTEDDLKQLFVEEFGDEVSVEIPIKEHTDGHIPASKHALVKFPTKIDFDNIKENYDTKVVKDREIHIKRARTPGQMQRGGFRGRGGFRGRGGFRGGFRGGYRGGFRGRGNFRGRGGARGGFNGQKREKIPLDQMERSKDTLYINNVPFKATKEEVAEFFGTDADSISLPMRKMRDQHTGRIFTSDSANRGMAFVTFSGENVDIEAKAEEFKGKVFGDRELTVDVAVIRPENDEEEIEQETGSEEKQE

| Molecule | percent of the polyadenylated polysomes that contain SBP1 [1] | relative level in the polysomal translating complexes (90S to 200S), mRNA set at 100 (elongation) [1] | relative level in the polysomal translating complexes (90S to 200S), mRNA set at 100 (initiation) [1] | relative level in the polysomal translating complexes (90S to 200S), mRNA set at 100 (elongation) [2] | relative level in the 77S monosomal translating complex, mRNA set at 100 (elongation) [3] | relative level in the 77S monosomal translating complex, mRNA set at 100 (initiation) [3] | relative level in the 77S monosomal translating complex, mRNA set at 100 (elongation) [4] | relative level in the 77S monosomal translating complex, mRNA set at 100 (elongation) [5] | relative level in the polysomal translating complexes (90S to 200S), mRNA set at 100 (elongation) ([1]; partners not purified) | relative level in the polysomal translating complexes (90S to 200S), mRNA set at 100 (initiation) ([1]; partners not purified) | relative level in the polysomal translating complexes (90S to 200S), mRNA set at 100 (elongation) ([2]; partners not purified) | relative level in the polysomal translating complexes (90S to 200S), mRNA set at 100 (initiation) ([2]; partners not purified) | relative level in the 77S monosomal translating complex, mRNA set at 100 (elongation) [6] | relative level in the 77S monosomal translating complex, mRNA set at 100 (initiation) [6] | relative level in the 77S monosomal translating complex, mRNA set at 100 (elongation) [7] | relative level in the 77S monosomal translating complex, mRNA set at 100 (initiation) [7] |
| --- | --- | --- | --- | --- | --- | --- | --- | --- | --- | --- | --- | --- | --- | --- | --- | --- |
| SBP1-GFP (from UniProt P10080 1-294) (natural protein) | 8.6% | 8.3 per 100 mRNA | 11 per 100 mRNA | < 0.3 per 100 mRNA | 2.1 per 100 mRNA | 3.3 per 100 mRNA | < 0.3 per 100 mRNA | – | – | – | – | – | – | – | – | – |
| eRF1-GFP (from UniProt P12385 1-437) (natural protein) | – | < 0.3 per 100 mRNA | < 0.3 per 100 mRNA | < 0.3 per 100 mRNA | 0.97 per 100 mRNA | 0.97 per 100 mRNA | 2.8 per 100 mRNA | < 0.3 per 100 mRNA | – | – | – | – | – | – | – | – |
| B1 | – | – | – | – | – | – | – | < 0.3 per 100 mRNA | 9.4 per 100 mRNA | 13 per 100 mRNA | 61 per 100 mRNA | 56 per 100 mRNA | 3.9 per 100 mRNA | 6.2 per 100 mRNA | 15 per 100 mRNA | 15 per 100 mRNA |
